US20240059789A1 (Janssen / Centocor, published 2024)
Positions count from the first letter of the chain named.

B1: PS3B1354 (bispecific antibody, human IgG1, lambda, L234A L235A)
heavy 1: QVQLQQSGPRLVRPSQTLSLTCAISGDSVFNNNAAWSWIRQSPSRGLEWLGRTYYRSKWLYDYAVSVKSRITVNPDTSRNQFTLQLNSVTPEDTALYYCARGYSSSFDYWGQGTLVTVSSASTKGPSVFPLAPSSKSTSGGTAALGCLVKDYFPEPVTVSWNSGALTSGVHTFPAVLQSSGLYSLSSVVTVPSSSLGTQTYICNVNHKPSNTKVDKKVEPKSCDKTHTCPPCPAPEAAGGPSVFLFPPKPKDTLMISRTPEVTCVVVSVSHEDPEVKFNWYVDGVEVHNAKTKPREEQYNSTYRVVSVLTVLHQDWLNGKEYKCKVSNKALPAPIEKTISKAKGQPREPQVYTLPPSREEMTKNQVSLTCLVKGFYPSDIAVEWESNGQPENNYKTTPPVLDSDGSFLLYSKLTVDKSRWQQGNVFSCSVMHEALHNHYTQKSLSLSPGK
light 1: QSALTQPASVSGSPGQSITISCTGTSSNIGTYKFVSWYQQHPDKAPKVLLYEVSKRPSGVSSRFSGSKSGNTASLTISGLQAEDQADYHCVSYAGSGTLLFGGGTKLTVLGQPKAAPSVTLFPPSSEELQANKATLVCLISDFYPGAVTVAWKADSSPVKAGVETTTPSKQSNNKYAASSYLSLTPEQWKSHRSYSCQVTHEGSTVEKTVAPTECS
heavy 2: EVQLVESGGGLVQPGGSLRLSCAASGFTFSSYAMSWVRQAPGKGLEWVSAISGGSGSTYYADSVKGRFTISRDNSKNTLYLQMNSLRAEDSAVYYCAKDGVGATPYYFDYWGQGTLVTVSSASTKGPSVFPLAPSSKSTSGGTAALGCLVKDYFPEPVTVSWNSGALTSGVHTFPAVLQSSGLYSLSSVVTVPSSSLGTQTYICNVNHKPSNTKVDKKVEPKSCDKTHTCPPCPAPEAAGGPSVFLFPPKPKDTLMISRTPEVTCVVVSVSHEDPEVKFNWYVDGVEVHNAKTKPREEQYNSTYRVVSVLTVLHQDWLNGKEYKCKVSNKALPAPIEKTISKAKGQPREPQVYTLPPSREEMTKNQVSLTCLVKGFYPSDIAVEWESNGQPENNYKTTPPVLDSDGSFFLYSRLTVDKSRWQQGNVFSCSVMHEALHNHYTQKSLSLSPGK
light 2: QSVLTQPPSVSAAPGQKVTISCSGSSSNIGNNYVSWYQQLPGTAPKLLIYDNNKRPSGIPDRFSGSKSGTSATLGITGLQTGDEADYYCGTWDSSLSAYVFGTGTKVTVLGQPKAAPSVTLFPPSSEELQANKATLVCLISDFYPGAVTVAWKADSSPVKAGVETTTPSKQSNNKYAASSYLSLTPEQWKSHRSYSCQVTHEGSTVEKTVAPTECS
B2: PSMB937 (bispecific antibody, human IgG1, lambda, L234A L235A)
heavy 1: QVQLQQSGPGLVKPSQTLSLTCAISGDSVFNNNAAWSWIRQSPSRGLEWLGRTYYRSKWLYDYAVSVKSRITINPDTSKNQFSLQLNSVTPEDTAVYYCARGYSSSFDYWGQGTLVTVSSASTKGPSVFPLAPSSKSTSGGTAALGCLVKDYFPEPVTVSWNSGALTSGVHTFPAVLQSSGLYSLSSVVTVPSSSLGTQTYICNVNHKPSNTKVDKKVEPKSCDKTHTCPPCPAPEAAGGPSVFLFPPKPKDTLMISRTPEVTCVVVSVSHEDPEVKFNWYVDGVEVHNAKTKPREEQYNSTYRVVSVLTVLHQDWLNGKEYKCKVSNKALPAPIEKTISKAKGQPREPQVYTLPPSREEMTKNQVSLTCLVKGFYPSDIAVEWESNGQPENNYKTTPPVLDSDGSFLLYSKLTVDKSRWQQGNVFSCSVMHEALHNHYTQKSLSLSPG
light 1: B1 light 1 with D43G, L49M, L50I, S62N, Q85E, H89Y
heavy 2: EVQLVESGGGLVQPGGSLRLSCAASGFTFSSYAMSWVRQAPGKGLEWVSAISGGSGSTYYADSVKGRFTISRDNSKNTLYLQMNSLRAEDSAVYYCAKDGVGATPYYFDYWGQGTLVTVSSASTKGPSVFPLAPSSKSTSGGTAALGCLVKDYFPEPVTVSWNSGALTSGVHTFPAVLQSSGLYSLSSVVTVPSSSLGTQTYICNVNHKPSNTKVDKKVEPKSCDKTHTCPPCPAPEAAGGPSVFLFPPKPKDTLMISRTPEVTCVVVSVSHEDPEVKFNWYVDGVEVHNAKTKPREEQYNSTYRVVSVLTVLHQDWLNGKEYKCKVSNKALPAPIEKTISKAKGQPREPQVYTLPPSREEMTKNQVSLTCLVKGFYPSDIAVEWESNGQPENNYKTTPPVLDSDGSFFLYSRLTVDKSRWQQGNVFSCSVMHEALHNHYTQKSLSLSPG
light 2: B1 light 2

Biological target: Human PSMA on prostate cancer cell lines (C4-2B, 22RV1) (human, UniProt Q04609 1-750)
Sequence (Q04609 whole entry): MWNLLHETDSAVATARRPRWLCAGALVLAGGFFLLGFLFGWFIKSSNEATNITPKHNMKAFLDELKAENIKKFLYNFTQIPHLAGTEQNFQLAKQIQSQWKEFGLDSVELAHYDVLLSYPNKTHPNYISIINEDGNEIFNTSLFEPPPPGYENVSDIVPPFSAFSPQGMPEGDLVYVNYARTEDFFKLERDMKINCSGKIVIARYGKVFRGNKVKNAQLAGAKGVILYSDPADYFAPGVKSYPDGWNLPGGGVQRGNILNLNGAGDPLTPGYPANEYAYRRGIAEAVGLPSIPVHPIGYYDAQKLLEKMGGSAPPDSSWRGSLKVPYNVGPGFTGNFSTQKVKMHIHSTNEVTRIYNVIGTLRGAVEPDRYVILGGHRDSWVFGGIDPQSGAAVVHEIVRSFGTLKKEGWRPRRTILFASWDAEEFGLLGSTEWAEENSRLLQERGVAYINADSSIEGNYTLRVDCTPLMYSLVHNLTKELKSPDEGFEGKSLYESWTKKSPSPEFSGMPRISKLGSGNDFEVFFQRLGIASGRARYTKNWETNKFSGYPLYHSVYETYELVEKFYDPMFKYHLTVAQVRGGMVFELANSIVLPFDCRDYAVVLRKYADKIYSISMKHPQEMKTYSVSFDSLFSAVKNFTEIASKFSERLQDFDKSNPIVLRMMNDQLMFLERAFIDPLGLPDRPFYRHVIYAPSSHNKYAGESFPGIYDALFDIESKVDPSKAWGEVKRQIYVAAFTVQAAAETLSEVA
Experiment: cell-based or functional assay

Row | Binder | Cytotoxicity (C4-2B cells, 3:1 E:T ratio, 5 Day) at 3.3 nM [%] | Cytotoxicity (C4-2B cells, 3:1 E:T ratio, 5 Day) at 10 nM [%] | Cytotoxicity (C4-2B cells, 3:1 E:T ratio, 5 Day) at 30 nM [%]
1 | B1 | 30 | 72 | 84
2 | B2 |  |  | 41
